In article PMC3299919 one finds Ki data, which are given here for one sequence.

For this data set, the target named is Nucleocapsid protein N (Rift Valley fever virus (strain M12)) (UniProt P21700). In words: FP competition. The following applies: 10 mM HEPES pH 7.3 ([…]) or pH 8 ([…].

Usually Ki stands for a measure of affinity in units of concentration, obtained from inhibition or displacement. Read a low Ki as tighter binding.

UniProt P21700, sequence (P21700 whole entry): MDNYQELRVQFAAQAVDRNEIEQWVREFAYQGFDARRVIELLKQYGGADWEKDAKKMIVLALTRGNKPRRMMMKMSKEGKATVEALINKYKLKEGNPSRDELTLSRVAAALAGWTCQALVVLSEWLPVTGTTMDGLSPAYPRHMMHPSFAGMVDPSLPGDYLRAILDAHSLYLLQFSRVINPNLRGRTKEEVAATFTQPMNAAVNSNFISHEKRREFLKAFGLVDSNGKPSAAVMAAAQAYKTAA

As for “CGUCCCGUAGUGUCGGUACUGAUUGAUGUG [MBE15.3]”, the Ki amounted to 0.2 µM.
